{
  "source": "paper PMC11398462",
  "about": "(bioRxiv, 2024)",
  "biological_target": "the molecule itself",
  "assay": "SEC",
  "data": [
    {"protein": "Lipo-YcjN (recombinantly overexpressed lipidated YcjN, heterogeneously diacylated at cysteine 21) (natural protein, E. coli K-12, UniProt P76042 21-430, looked up, cysteine 21 diacylated, acyl chain compositions [16:0, 16:0] and [16:0, 18:1]) CKEENKTNVSIEFMHSSVEQERQAVISKLIARFEKENPGITVKQVPVEEDAYNTKVITLSRSGSLPEVIETSHDYAKVMDKEQLIDRKAVATVISNVGEGAFYDGVLRIVRTEDGSAWTGVPVSAWIGGIWYRKDVLAKAGLEEPKNWQQLLDVAQKLNDPANKKYGIALPTAESVLTEQSFSQFALSNQANVFNAEGKITLDTPEMMQALTYYRDLTANTMPGSNDIMEVKDAFMNGTAPMAIYSTYILPAVIKEGDPKNVGFVVPTEKNSAVYGMLTSLTITAGQKTEETEAAEKFVTFMEQADNIADWVMMSPGAALPVNKAVVTTATWKDNDVIKALGELPNQLIGELPNIQVFGAVGDKNFTRMGDVTGSGVVSSMVHNVTVGKADLSTTLQASQKKLDELIEQH", "values": [
      {"measurement": "binding result", "result": "binds"}
    ]}
  ]
}
